The subject of experiment [1] is HSV-2. Description: Cell-to-cell infection inhibition (plaque areas, post-adsorption). Type of experiment: cell-based. The conditions noted are these: Fabs 200 ug/mL, IgGs 100 ug/mL. How it is done:
(§1) Post post-adsorption assays have been performed in order to evaluate the contribution of IgGA in inhibiting “cell-to-cell” infection by measuring the plaque areas resulting from infected cells treated or untreated with FabA or IgGA.
(§2) Fabs tested in post-adsorption cell-to-cell infection inhibition assays have also been preliminary used at a concentration of 50 and 200 ug/mL against HSV-1 and HSV-2 tested isolates respectively*.
(§3) IgGs tested in post-adsorption “cell-to-cell” infection inhibition assays have also been preliminary used at a concentration of 25 and 100 ug/mL against HSV-1 and HSV-2 tested isolates respectively*.

Experiment [2] relates to HSV-1. The description is as above. Type of experiment: cell-based. The conditions noted are these: Fabs 50 ug/mL, IgGs 25 ug/mL. The protocol:
as §1, §2, §3

The subject of experiment [3] is HSV-2. Kind of experiment: Syncytia formation evaluation (qualitative neutralization assay). Type of experiment: cell-based, HSV-2 (MS strain). How it is done:
(§4) Purified Fabs (Ex2(G2), Ex2B(G2), Ex2C(G2), Ex2H(G2) and Ex2I (G2) were pre-incubated (10 μg/mL) with a standard amount of HSV-1 or HSV-2 isolates. Appropriate experimental controls were also included. The different “infection-mix” was used to infect Vero E6 cells (adsorption 2 hours before change of medium).
(§5) After twenty hours, the cell monolayers were Fixed and Permeabilized with crystal violet containing solution allowing first a qualitative evaluation of Fabs biological activities against both HSV-1 and HSV-2 isolates (procedure described in the Materials and Methods section). The reduction of syncytia formation was assessed by bright field phase contrast optical microscopy. As already stated, this assay allowed a first evaluation of Fab potencies.
(§6) The qualitative assays (described in the Materials and Methods section) were performed on IgG1 format of selected anti-HSV-1 and 2 Fabs (FIG. 11).
(§7) In order to evaluate the potency of Fab Ex2, a qualitative assay using different dilutions was performed. Three different concentrations of Ex2 (10 μg/ml, 5 μg/ml and 2.5 μg/ml) were tested against HSV-1 and 2 through the syncytia formation assay.
(§8) Syncytia Formation Evaluation Through Bright Field Phase Contrast Optical Microscope Protocol: […]
(§9) The reduction of syncytia formation was assessed by bright field phase contrast optical microscope. […]

Experiment [4] deals with HSV-2. Description: Quantitative neutralizing activity through indirect immunofluorescence (IIF), InCellAnalyzer count. It is filed as cell-based, HSV-2 (MS strain). The conditions noted are these: IgG1 Fab; Vero E6 cells. The protocol: (§10) The neutralizing activity of Fabs Ex2, Ex2B, Ex2C, Ex2H and Ex2I was evaluated using the InCellAnalyzer automated count system in order to calculate the IC50s of all Fab and obtain a dose-response curve. Several dilutions of the different Fabs were used in order to obtain the dose-response curve. In all sets of neutralization experiments several Fab dilutions were performed since only using a biological compound limit dilution was possible to obtain the exact amount of Fab able to inhibit viral infection.
(§11) Moreover, the same “dose-response” curve allowed the calculation of Fab IC50 which effectively depicts the in vitro Fab potency. The IC50 is the Fab concentration able to reduce by 50% the cell damage due to the infection of cell monolayer with a standard amount of virus (HSV-1 and HSV-2).
(§12) Quantitative Neutralizing Activity Evaluation Through Indirect Immunofluorescence (IIF) Assay Protocol: […]
(§13) Neutralization activity was then assessed by counting the immunofluorescence infection foci through InCellAnalyzer system.
(§14) The number of infection foci in the cell monolayer infected with viruses treated with the different Fab preparations was compared with the foci counted for the virus control (same virus amount)
(§15) The percentage of neutralization was then evaluated and a standard deviation from the mean was calculated as well (the experiment was performed in triplicate)

In experiment [5] the test system is HSV-1. Description: Syncytia formation evaluation (qualitative neutralization assay). It is filed as cell-based, HSV-1 (HF strain). The protocol: as §4, §5, §6, §7, §8, §9
Experiment [6] concerns HSV-1. Kind of experiment: Plaque reduction assay. The conditions noted are these: 1 μg/mL. It is filed as cell-based, HSV-1 (HF strain). The protocol: (§16) Dose-response quantitative assay: the capability of Fab Ex2 to inhibit HSV infection was assessed by evaluating the presence of lysis plaques on cell monolayer due to HSV infection in the presence or in the absence of Fab Ex2. To confirm the IIF neutralization data, a plaque reduction assay was performed as quantitative evaluation.
(§17) Quantitative Neutralizing Activity Evaluation Through Plaque Reduction Assay Protocol:
(§18) 7×10^5 Vero cells/well were seeded in a 6-wells plate and grown in the appropriate complete medium supplemented with 10% FCS. Experiment was performed with cells at 100% confluence.
(§19) HSV-1 and HSV-2 viral stocks dilution (−5 and −4 respectively) were pre-incubated with purified Fab of interest at different concentrations (5, 2.5 and 1 μg/mL) in a final volume of 800 μL of complete DMEM, for 1 h at 37° C. and 5% CO2.
(§20) Experimental controls were added as well.
(§21) After washing the cells with a PBS 1× solution, viral solutions were added to the monolayers and incubated for 2 h at 37° C. and 5% CO2 for adsorption. […]
(§22) Neutralization activity was then assessed by counting the plaque forming units (PFU). In particular, the number of PFU in the cell monolayer infected with Fab-treated viruses was compared with the PFU counted for the virus control (same virus amount).
On the technique in general: In a plaque reduction assay, fewer plaques than in the control indicate reduced infectivity or spread.

The subject of experiment [7] is HSV-2. Description: Plaque reduction assay. Type of experiment: cell-based, HSV-2 (MS strain). Particulars: due to very high potency. How it is done:
as §16, §17, §18, §19, §20, §21, §22

For experiment [8], the system named is HSV-1. Description: Quantitative neutralizing activity through indirect immunofluorescence (IIF), InCellAnalyzer count. The conditions noted are these: IgG1 Fab; Vero E6 cells. Type of experiment: cell-based, HSV-1 (HF strain). How it is done: as §10, §11, §12, §13, §14, §15

B1: Ex2: human monoclonal Fab, VH SEQ ID NO.1 and VL SEQ ID NO.2, IgG2 Fab converted to IgG1 (antibody, listed as Homo sapiens, V domains shown)
VH: LESGGGVVQPGRSLRLSCAASGFTFTTFAMHWVRQAPGKGLEWLAFISYDGSNKYYADSVKGRFTISRDNSKNTLYLQMNSLRAEDTSIYYCAREVWNYADYWGQGALVTVSS
VL: ELTQSPGTLSSSPGHRATLSCKASAPLGSNHMAWYQQKPGQAPRLLIYGASTRATGVPARFTGSGSGTDFTLTISSLQPEDFATYYCQQANSFPRTFGQGTKVEIK
modifications: IgG1 constant regions
Take B1: the “inhibition of plaque areas (cell-to-cell infection), HSV-2” value in experiment [1] is given as “inhibits”. Besides, the “inhibition of plaque areas (cell-to-cell infection), HSV-1” value in experiment [2] is “inhibits”. Besides, in experiment [3] (10 μg/ml, 5 μg/ml and 2.5 μg/ml, very low concentrations), the “inhibition of HSV-2 infection (syncytia formation assay)” value is “completely inhibit”. Besides, the “neutralizing potency of IgG1 format compared to IgG2 format, HSV-2” value in experiment [3] (IgG1 converted Fabs) is given as “increased potency”. In addition, the “HSV-2 (IC50 μg/mL ± CI 95%)” value in experiment [4] is listed as 0.2 (0.19 ± 0.23) μg/mL. The “inhibition of cellular disruption and syncytia formation, HSV-1” value in experiment [5] (10 μg/ml, 5 μg/ml and 2.5 μg/ml, dose-dependent) is “strongly inhibit”. Besides, the “neutralizing potency of IgG1 format compared to IgG2 format, HSV-1” value in experiment [5] (IgG1 converted Fabs) is on record as “increased potency”. For the same molecule, the “HSV-1 plaque formation measured as PFU” value in experiment [6] is “inhibited”. In experiment [7], the “dose-response effect in HSV-2 plaque neutralization assay” value is listed as “a dose-response effect could not be measured”. For the same molecule, in experiment [8], the “HSV-1 (IC50 μg/mL ± CI 95%)” value is recorded as 0.7 (0.44 ± 1.21) μg/mL.

These data come from patent US10899824B2 (Polichem S.A., priority 2016, dated 2021).
